The results in this text go back to PMC11432007.

This experiment has as its target GABAA receptor β2 subunit extracellular domain fragment Gln25–Gly243 (human (abstract, Figure 1); 'bovine gene' in the methods) (UniProt P47870). Put plainly: negative staining electron microscopy; single refolded subunit fragment, dialysed into 10 mM glycine pH 10.3; 2% uranyl acetate on carbon-coated copper grid, 120 kV TEM; 2D classification in Relion from manually picked particles of 20 micrographs.

As usually defined, the stoichiometry N is a count of units in the complex or per binding partner. In turn, “GABAA receptor β2 subunit extracellular domain fragment Gln25–Gly243 (from UniProt P47870 25-243) (domain or fragment)” returned a stoichiometry N of 5.
